From paper PMC5865128 (Nature Communications, 2018)
Changes are numbered by the printed parent chain. One block for each molecule: values may come before it.

Tests used:
[1] = target: naturally cleaved, untagged human BAFF E223K (human); assay: SEC; concentrated 293 T supernatants of naturally cleaved BAFF fractionated on Superdex 200 Increase; fractions blotted with anti-BAFF antibodies; oligomer seen in the fractions
[2] = target: His-tagged human BAFF (60-mer) (human) (UniProt Q9Y275); assay: SEC; purified His-tagged BAFF alone on Superdex 200 Increase, against molecular weight standards
[3] = target: naturally cleaved, untagged human BAFF H218A (human); assay: SEC; concentrated 293 T supernatants of naturally cleaved BAFF fractionated on Superdex 200 Increase; fractions blotted with anti-BAFF antibodies; oligomer seen in the fractions
[4] = target: T1, FLAG-tagged human BAFF 3-mer, H218A (human, UniProt Q9Y275 134-285, H218A); assay: ELISA; direct binding: BAFFR-Fc, BCMA-Fc or TACI-Fc (human or mouse) adsorbed at 1 µg/ml; FLAG-tagged BAFF 3-mers of the corresponding species 1 h at 37 °C in PBS, 0.4% milk, 0.05% Tween-20; biotinylated anti-FLAG detection; settings: both partners purified
T1 construct: human BAFF (TNFSF13B), soluble form; also called FLAG-hBAFF H218A; source: 293 T cells, transient transfection, supernatant, size fractionated by gel filtration (3-mer fractions 15 + 16)

[5] = target: T2, FLAG-tagged human BAFF 3-mer, E223K (human, UniProt Q9Y275 134-285, E223K); assay: as above; settings: both partners purified
T2 construct: human BAFF (TNFSF13B), soluble form; also called FLAG-hBAFF E223K; source: 293 T cells, transient transfection, supernatant, size fractionated by gel filtration (3-mer fractions 15 + 16)

[6] = target: T3, Fc-human BAFF, wild type (human, UniProt Q9Y275); assay: ELISA; Fc-hBAFF (WT or H218A) coated at 1 µg/ml; soluble Fc-BAFF (WT or H218A) titrated, then biotinylated Fab of belimumab (50 µl of 100 ng/ml); streptavidin-peroxidase detection; relative affinity; settings: both partners purified
T3 construct: human BAFF (TNFSF13B); called an intrinsically cross-linked BAFF; also called Fc-hBAFF WT; Fc-BAFF

[7] = target: T4, FLAG-tagged mouse BAFF 3-mer, H242A (mouse, UniProt Q9WU72 127-309, H242A); assay: ELISA; direct binding: BAFFR-Fc, BCMA-Fc or TACI-Fc (human or mouse) adsorbed at 1 µg/ml; FLAG-tagged BAFF 3-mers of the corresponding species 1 h at 37 °C in PBS, 0.4% milk, 0.05% Tween-20; biotinylated anti-FLAG detection; settings: both partners purified
T4 construct: mouse BAFF (Tnfsf13b), soluble form; also called FLAG-mBAFF H242A; source: 293 T cells, transient transfection, supernatant, size fractionated by gel filtration (3-mer fractions 13 + 14)
T4 sequence (looked up): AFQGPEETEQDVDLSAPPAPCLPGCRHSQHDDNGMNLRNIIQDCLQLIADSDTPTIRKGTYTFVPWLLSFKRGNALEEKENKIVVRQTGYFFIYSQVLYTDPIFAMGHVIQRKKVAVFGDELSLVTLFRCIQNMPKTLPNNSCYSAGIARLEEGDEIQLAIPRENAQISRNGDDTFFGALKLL

[8] = target: T5, FLAG-tagged mouse BAFF 3-mer, E247K (mouse, UniProt Q9WU72 127-309, E247K); assay: as above; settings: both partners purified
T5 construct: mouse BAFF (Tnfsf13b), soluble form; also called FLAG-mBAFF E247K; source: 293 T cells, transient transfection, supernatant, size fractionated by gel filtration (3-mer fractions 13 + 14)
T5 sequence (looked up): T4 sequence (looked up) with A116H, E121K

[9] = target: T6, FLAG-tagged mouse BAFF 3-mer, wild type (mouse, UniProt Q9WU72 127-309); assay: as above; settings: both partners purified
T6 construct: mouse BAFF (Tnfsf13b), soluble form; also called FLAG-mBAFF WT; mBAFF; source: 293 T cells, transient transfection, supernatant, size fractionated by gel filtration (3-mer fractions 13 + 14)

stoichiometry N [1]: 3
Molecule: naturally cleaved, untagged human BAFF E223K (ligand)

stoichiometry N [2]: 60
Molecule: His-tagged human BAFF (60-mer) (from UniProt Q9Y275 134-285) (ligand)

stoichiometry N [3]: 3
Molecule: naturally cleaved, untagged human BAFF H218A (ligand)

binding result [4]: binds | binding result [5]: binds
B1: human BCMA-Fc (Fc fusion, UniProt Q02223 1-54, looked up)
chain: MLQMAGQCSQNEYFDSLLHACIPCQLRCSSNTPPLTCQRYCNASVTNSVKGTNA
notes: human BCMA (TNFRSF17); also called TNFRSF17

binding result [6]: binds
B2: Fab fragment of belimumab (Fab, V domains shown)
VH: QVQLQQSGAEVKKPGSSVRVSCKASGGTFNNNAINWVRQAPGQGLEWMGGIIPMFGTAKYSQNFQGRVAITADESTGTASMELSSLRSEDTAVYYCARSRDLLLFPHHALSPWGRGTMVTVSS
VL: SSELTQDPAVSVALGQTVRVTCQGDSLRSYYASWYQQKPGQAPVLVIYGKNNRPSGIPDRFSGSSSGNTASLTITGAQAEDEADYYCSSRDSSGNHWVFGGGTELTVL
notes: heavy-chain part of the Fab; as the light chain of m24; also called belimumab Fab; source: papain digestion of belimumab, flowthrough of Protein A, size-fractionated (Superdex 200 Increase)

binding result [7]: binds | binding result [8]: binds | binding result [9]: binds
B3: mouse BAFFR-Fc (Fc fusion, UniProt Q9D8D0 1-71, looked up)
chain: MGARRLRVRSQRSRDSSVPTQCNQTECFDPLVRNCVSCELFHTPDTGHTSSLEPGTALQPQEGSALRPDVA
notes: mouse BAFF receptor (BAFFR); also called mBAFFR-Fc

binding result [7]: binds | binding result [8]: binds | binding result [9]: binds
Molecule: MAQQCFHSEYFDSLLHACKPCHLRCSNPPATCQPYCDPSVTSSVKGTYT (Fc fusion, UniProt O88472 1-49, looked up, mouse BCMA) [mouse BCMA-Fc]

binding result [7]: binds | binding result [8]: binds | binding result [9]: binds
B4: mouse TACI-Fc (Fc fusion, UniProt Q9ET35 1-128, looked up)
chain: MAMAFCPKDQYWDSSRKSCVSCALTCSQRSQRTCTDFCKFINCRKEQGRYYDHLLGACVSCDSTCTQHPQQCAHFCEKRPRSQANLQPELGRPQAGEVEVRSDNSGRHQGSEHGPGLRLSSDQLTLYC
notes: mouse TACI
